This is an account of results in the supplement of paper PMC9112550, “Optimization of the antimicrobial peptide Bac7 by deep mutational scanning” (BMC Biology, 2022).

This series has as its system Escherichia coli TOP10. As to the kind of experiment: shrunken log2 fold change of peptide-encoding DNA abundance (4.5 h post-induction vs induction); higher = less antimicrobial activity (less host growth inhibition). To be noted: time post-induction: 4.5 h; library: site-saturation at positions 5, 18, 19, 20.
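Further: peptides expressed intracellularly from a pBAD plasmid library in pooled LB shake-flask culture, induced with 0.3% L-arabinose, DNA abundance read by NGS, three biological replicates, DESeq2 with apeglm shrinkage.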

As to RRIRLRPPRLPRPRPRPTQVPRP, the “shrunken log2 fold change” value turned out to be 0.452. In the case of RRIRSRPPRLPRPRPRPAMEPRP, the “shrunken log2 fold change” value was -0.0044. Regarding RRIRSRPPRLPRPRPRPSYFPRP, the “shrunken log2 fold change” value is -0.687. For RRIRKRPPRLPRPRPRPRHNPRP the value was -0.241; for RRIRNRPPRLPRPRPRPYVNPRP, -0.121; for RRIRLRPPRLPRPRPRPTFEPRP, -0.336. As to RRIRFRPPRLPRPRPRPFQDPRP, the “shrunken log2 fold change” value stood at 0.0171. For RRIRKRPPRLPRPRPRPYSKPRP the value was -0.608.

Turning to RRIRTRPPRLPRPRPRPGDLPRP, the “shrunken log2 fold change” value is -0.0395. For RRIRYRPPRLPRPRPRPYLEPRP the value was -1.7.

In the case of RRIRPRPPRLPRPRPRPFWNPRP, the “shrunken log2 fold change” value is -0.478. For RRIRVRPPRLPRPRPRPHYEPRP the value was -0.173. The result for RRIRGRPPRLPRPRPRPWRTPRP reads -0.0149. For RRIRPRPPRLPRPRPRPNHVPRP the value was -0.532. RRIRDRPPRLPRPRPRPKCIPRP: the “shrunken log2 fold change” value was -0.318. Turning to RRIRIRPPRLPRPRPRPSRGPRP, the “shrunken log2 fold change” value was 0.242. The result for RRIRNRPPRLPRPRPRPQLNPRP reads -0.539. The result for RRIRTRPPRLPRPRPRPDFTPRP reads -0.0888; that for RRIRARPPRLPRPRPRPKSAPRP, 0.709. For RRIRQRPPRLPRPRPRPIWNPRP the value was -0.183; for RRIRIRPPRLPRPRPRPMNEPRP, 0.0707. For the sequence RRIRCRPPRLPRPRPRPFVRPRP, the “shrunken log2 fold change” value is -0.141. On to RRIRCRPPRLPRPRPRPIDEPRP, for which the “shrunken log2 fold change” value was -0.0366. Take RRIRERPPRLPRPRPRPDPGPRP: the “shrunken log2 fold change” value stood at 0.0879.

As to RRIRMRPPRLPRPRPRPSCQPRP, the “shrunken log2 fold change” value is 0.166. With RRIRQRPPRLPRPRPRPAGPPRP, the “shrunken log2 fold change” value is -0.000608.

Consider RRIRSRPPRLPRPRPRPNDRPRP, for which the “shrunken log2 fold change” value worked out at 0.0698. Regarding RRIRKRPPRLPRPRPRPSWLPRP, the “shrunken log2 fold change” value stood at 0.303. The result for RRIRWRPPRLPRPRPRPCGIPRP reads 0.0389. The result for RRIRFRPPRLPRPRPRPMNRPRP reads -0.0364; that for RRIRHRPPRLPRPRPRPITFPRP, -0.0514. For RRIRHRPPRLPRPRPRPSQYPRP the value was -0.372; for RRIRTRPPRLPRPRPRPYTAPRP, -0.389. Turning to RRIRRRPPRLPRPRPRPQNTPRP, the “shrunken log2 fold change” value is -0.218. For RRIRDRPPRLPRPRPRPTFMPRP, the “shrunken log2 fold change” value was -0.07. Consider RRIRPRPPRLPRPRPRPMIDPRP, for which the “shrunken log2 fold change” value is -0.16.

Regarding RRIRSRPPRLPRPRPRPQLTPRP, the “shrunken log2 fold change” value was -0.136. As to RRIRIRPPRLPRPRPRPSMNPRP, the “shrunken log2 fold change” value is -0.717. The result for RRIRRRPPRLPRPRPRPVTEPRP reads 0.285; that for RRIRVRPPRLPRPRPRPIWAPRP, 0.256.

In the case of RRIRPRPPRLPRPRPRPPRYPRP, the “shrunken log2 fold change” value came out at 0.237. For RRIRHRPPRLPRPRPRPTGSPRP the value was 0.0528. As to RRIRGRPPRLPRPRPRPSWCPRP, the “shrunken log2 fold change” value was found to be 0.013. For RRIRVRPPRLPRPRPRPIRMPRP the value was -0.243.

Turning to RRIRKRPPRLPRPRPRPSDIPRP, the “shrunken log2 fold change” value worked out at 1.14. The result for RRIRKRPPRLPRPRPRPPANPRP reads 0.48.

Take RRIRNRPPRLPRPRPRPVTRPRP: the “shrunken log2 fold change” value is -0.124. The result for RRIRIRPPRLPRPRPRPSGTPRP reads -0.0278; that for RRIRGRPPRLPRPRPRPNKHPRP, 0.124. Consider RRIRWRPPRLPRPRPRPIASPRP, for which the “shrunken log2 fold change” value stood at 0.104.

Regarding RRIRIRPPRLPRPRPRPIHSPRP, the “shrunken log2 fold change” value was -0.302.

Regarding RRIRTRPPRLPRPRPRPVGLPRP, the “shrunken log2 fold change” value was -0.00734. RRIRPRPPRLPRPRPRPDLCPRP: the “shrunken log2 fold change” value was -0.0739. The result for RRIRARPPRLPRPRPRPWTAPRP reads 0.871; that for RRIRVRPPRLPRPRPRPVSDPRP, -0.0859. On to RRIRMRPPRLPRPRPRPYLWPRP, for which the “shrunken log2 fold change” value stood at 0.0857. RRIRTRPPRLPRPRPRPRYHPRP: the “shrunken log2 fold change” value was -0.573. Consider RRIRHRPPRLPRPRPRPQMDPRP, for which the “shrunken log2 fold change” value is -0.106.

Regarding RRIRHRPPRLPRPRPRPNNWPRP, the “shrunken log2 fold change” value is -0.269. For RRIRMRPPRLPRPRPRPWWSPRP, the “shrunken log2 fold change” value worked out at 0.334. For RRIRSRPPRLPRPRPRPCEMPRP the value was 0.0253; for RRIRRRPPRLPRPRPRPYGEPRP, -0.0212; for RRIRRRPPRLPRPRPRPGHWPRP, 0.0797. With RRIRNRPPRLPRPRPRPDLGPRP, the “shrunken log2 fold change” value was determined as 0.0328. For RRIRYRPPRLPRPRPRPRCFPRP the value was -0.152; for RRIRCRPPRLPRPRPRPNKLPRP, -0.283; for RRIRNRPPRLPRPRPRPAFAPRP, 0.158. The result for RRIRWRPPRLPRPRPRPKWRPRP reads 0.428; that for RRIRHRPPRLPRPRPRPMLPPRP, -0.0141. The result for RRIRERPPRLPRPRPRPREFPRP reads -0.0736; that for RRIRDRPPRLPRPRPRPARVPRP, 0.948.

Regarding RRIRHRPPRLPRPRPRPKYHPRP, the “shrunken log2 fold change” value was -0.773.

For RRIRARPPRLPRPRPRPGHGPRP, the “shrunken log2 fold change” value was found to be 0.377.

As for RRIRKRPPRLPRPRPRPEAYPRP, the “shrunken log2 fold change” value is 0.0226. Regarding RRIRARPPRLPRPRPRPSHYPRP, the “shrunken log2 fold change” value was -0.0225.

RRIRDRPPRLPRPRPRPVQNPRP: the “shrunken log2 fold change” value stood at 0.577. Regarding RRIRKRPPRLPRPRPRPCGDPRP, the “shrunken log2 fold change” value was 0.466. For RRIRKRPPRLPRPRPRPGVLPRP the value was 0.293. In the case of RRIRDRPPRLPRPRPRPRALPRP, the “shrunken log2 fold change” value is 0.226. Regarding RRIRRRPPRLPRPRPRPLKHPRP, the “shrunken log2 fold change” value turned out to be 0.208. With RRIRYRPPRLPRPRPRPAGIPRP, the “shrunken log2 fold change” value is -0.359. The result for RRIRIRPPRLPRPRPRPHLLPRP reads 0.0103. For RRIRMRPPRLPRPRPRPKMWPRP the value was 0.643; for RRIRFRPPRLPRPRPRPSRKPRP, -0.0267. For RRIRKRPPRLPRPRPRPFDDPRP, the “shrunken log2 fold change” value is -0.131.

Turning to RRIRQRPPRLPRPRPRPIETPRP, the “shrunken log2 fold change” value came out at 0.00824. With RRIRVRPPRLPRPRPRPDAPPRP, the “shrunken log2 fold change” value stood at 0.422. The result for RRIRLRPPRLPRPRPRPAKKPRP reads 0.0858. For RRIRHRPPRLPRPRPRPEDNPRP the value was -0.0032. Consider RRIRWRPPRLPRPRPRPSFWPRP, for which the “shrunken log2 fold change” value is 0.372.

As to RRIRLRPPRLPRPRPRPCMIPRP, the “shrunken log2 fold change” value was -0.21. With RRIRDRPPRLPRPRPRPHQEPRP, the “shrunken log2 fold change” value was -0.281. For the sequence RRIRKRPPRLPRPRPRPEVMPRP, the “shrunken log2 fold change” value worked out at 0.148. For RRIRNRPPRLPRPRPRPWSFPRP the value was -0.538; for RRIRCRPPRLPRPRPRPNNLPRP, -0.765. For RRIRFRPPRLPRPRPRPAPGPRP the value was 0.668; for RRIRERPPRLPRPRPRPSEPPRP, 0.227; for RRIRQRPPRLPRPRPRPKGAPRP, 0.0159.

As to RRIRQRPPRLPRPRPRPEAIPRP, the “shrunken log2 fold change” value was -0.0935.

As for RRIRYRPPRLPRPRPRPMRKPRP, the “shrunken log2 fold change” value is -0.00197.

Turning to RRIRQRPPRLPRPRPRPNKTPRP, the “shrunken log2 fold change” value is -0.0379.

In the case of RRIRIRPPRLPRPRPRPCSQPRP, the “shrunken log2 fold change” value is -0.226. As for RRIRQRPPRLPRPRPRPASLPRP, the “shrunken log2 fold change” value is -0.232. In the case of RRIRIRPPRLPRPRPRPWGVPRP, the “shrunken log2 fold change” value was -0.888. For RRIRERPPRLPRPRPRPREAPRP the value was 0.419; for RRIRNRPPRLPRPRPRPRRSPRP, 0.428; for RRIRARPPRLPRPRPRPCKNPRP, 0.138. In the case of RRIRMRPPRLPRPRPRPMHGPRP, the “shrunken log2 fold change” value is -0.0683. The result for RRIRIRPPRLPRPRPRPMQIPRP reads -0.099; that for RRIRLRPPRLPRPRPRPKEEPRP, -0.0533.

For RRIRKRPPRLPRPRPRPCFTPRP, the “shrunken log2 fold change” value came to 0.135. RRIRERPPRLPRPRPRPPTEPRP: the “shrunken log2 fold change” value is 0.0778. For the sequence RRIRVRPPRLPRPRPRPSALPRP, the “shrunken log2 fold change” value is -0.0271. The result for RRIRNRPPRLPRPRPRPVFYPRP reads -0.19; that for RRIRPRPPRLPRPRPRPQRHPRP, -0.14. The result for RRIRERPPRLPRPRPRPNCFPRP reads -0.195. For RRIRMRPPRLPRPRPRPSNSPRP the value was -0.192. On to RRIRYRPPRLPRPRPRPAKEPRP, for which the “shrunken log2 fold change” value is 0.0142. For RRIRYRPPRLPRPRPRPIHDPRP the value was -1.22; for RRIRTRPPRLPRPRPRPDTQPRP, 0.0514; for RRIRVRPPRLPRPRPRPDYWPRP, -0.449. With RRIRVRPPRLPRPRPRPVSFPRP, the “shrunken log2 fold change” value is -0.126.

RRIRGRPPRLPRPRPRPESSPRP: the “shrunken log2 fold change” value came to 1.26.

As for RRIRVRPPRLPRPRPRPACFPRP, the “shrunken log2 fold change” value came to 0.169.

Take RRIRSRPPRLPRPRPRPFGIPRP: the “shrunken log2 fold change” value is -0.172.
